{"source": "patent US20230024461A1", "about": "“METHODS FOR DUAL DNA/PROTEIN TAGGING OF OPEN CHROMATIN” (Beth Israel Deaconess Medical Center, Inc., priority 2019, published 2023)", "key": {"GM12878 nuclei": {"tested_on": "GM12878 nuclei", "assay": "Peroxidase-mediated biotin labeling after transposition, western blot", "type": "biochemical, human", "experimental": "Western blot. Whole cell lysate was generated by resuspending cells washed with 1×PBS in RIPA (Boston BioProducts) supplemented with 1× complete EDTA-free protease inhibitor cocktail (Roche). Cells were subject to sonication via a Sonic Dismembrator 100 (Fisher Scientific) at setting 2, with 3 pulses of 15 seconds on/off on ice. Lysates were clarified by centrifugation (15,000×g, 30 minutes, 4° C.) and their concentrations quantified with detergent-compatible Bradford assay (Thermo Fisher Scientific). All Western blots were run on NuPAGE 4-12% Bis-Tris protein gels (Thermo Fisher Scientific) and transferred to […] nitrocellulose membranes (GE Healthcare). Membranes were stained with Ponceau S, blocked with 3% milk in PBS-T, and incubated overnight with primary antibody and subsequently with secondary antibody after brief washing with PBS-T. Chemiluminescence was determined by applying ECL Western Blotting detection reagent (GE Healthcare) to membranes and imaging on an Amersham Imager 600 (GE Healthcare). Membranes were stripped with Restore PLUS Stripping Buffer (Thermo Fisher Scientific); streptavidin-HRP was inactivated with 15% hydrogen peroxide. […]"}, "K562 nuclei": {"tested_on": "K562 nuclei", "assay": "iDAPT protein labeling, western blot of labeled nuclear lysates", "type": "biochemical, human", "experimental": "(§1) DNA and protein tagging by iDAPT. All iDAPT proteomic labeling assays were performed as described below unless indicated otherwise. 2.5 μmol MEDS-A/B, 2 μmol enzyme, and 1 μmol hemin chloride per channel were incubated at room temperature for 1 hour. 1e7 cells per sample were washed (500×g, 5 minutes, 4° C.), lysed and triturated in 100 μL LB1 (10 mM Tris-HCl pH 7.5, 10 mM NaCl, 3 mM MgCl2, 1% BSA, 0.01% digitonin, 0.1% Tween-20, 0.1% NP-40, and 1× cOmplete EDTA-free protease inhibitor cocktail [Roche]) for 3 minutes, and subsequently supplemented with an additional 1 mL of LB2 (10 mM Tris-HCl pH 7.5, 10 mM NaCl, 3 mM MgCl2, 1% BSA, 0.1% Tween-20, and 1× protease inhibitor). Nuclei were pelleted (500×g, 10 minutes, 4° C.), resuspended with tagmentation reaction mixture (20% dimethylformamide, 10 mM MgCl2, 20 mM Tris-HCl pH 7.5, 33% 1×PBS, 1% BSA, 0.01% digitonin, 0.1% Tween-20, 500 μM biotin-phenol, 1× protease inhibitor, and 2 pmol enzyme equivalent of enzyme:DNA:heme complex in a total volume of 500 μL), and incubated at 37° C. for 30 minutes with agitation on a thermomixer (1,000 rpm). 5 μL of tagmentation mix was saved for quality assessment as described above for ATAC-seq/iDAPT-seq sample preparation. The remaining nuclear suspension was then washed 2× with 1×PBS supplemented with 500 μM biotin-phenol, 1% BSA, 0.1% Tween-20, and 1× protease inhibitor (3000×g, 5 minutes, 4° C.) and labeled with 1 mM hydrogen peroxide and 500 μM biotin-phenol for 1 minute in 1×PBS with 1× protease inhibitor in a volume of 500 μL. Peroxidation reactions were quenched with 500 μL 2× quenching buffer (10 mM Trolox, 20 mM sodium ascorbate, 20 mM NaN3, and 1× protease inhibitor in 1×PBS). Labeled nuclei were then pelleted, washed with 1× quenching buffer, resuspended in 500 μL RIPA containing protease inhibitors, and frozen at −80° C. Lysates were thawed on ice, sonicated via a Sonic Dismembrator 100 (Fisher Scientific, setting 3, 15 seconds, 4 pulses), and incubated on ice for 30 minutes after the addition of 1 μL benzonase (EMD Millipore). Lysates were clarified by centrifugation (15,000×g, 20 minutes, 4° C.), quantified via the detergent-compatible Bradford assay (Thermo Fisher Scientific), and subjected to either Western blotting or quantitative mass spectrometry analyses as described below. For NB4 cell analysis, an additional endogenous peroxidase blocking step was added after nuclear extraction and before tagmentation: nuclei were resuspended in 500 μL 1×PBS containing 1% BSA, 0.03% hydrogen peroxide, and 0.1% NaN3 and incubated on ice for 30 minutes. Nuclei were pelleted and washed 4× with 1×PBS/1% BSA (3000×g, 5 minutes, 4° C.). Residual hydrogen peroxide was monitored by colorimetric assessment of supernatant via Quantofix peroxides test stick (Sigma).\n(§2) Western blotting analysis. Whole cell or nuclear lysates were generated by resuspending cells or nuclei in RIPA (Boston BioProducts) supplemented with 1× cOmplete EDTA-free protease inhibitor cocktail (Roche). […] Lysates were clarified by centrifugation (15,000×g, 20 minutes, 4° C.) and their concentrations quantified via the detergent-compatible Bradford assay (Thermo Fisher Scientific). […] Membranes were blocked with 3% milk in PBS-T and incubated overnight with primary antibody and subsequently with secondary antibody after brief washing with PBS-T. Chemiluminescence was determined by applying ECL Western Blotting detection reagent (GE Healthcare) to membranes and imaging on an Amersham Imager 600 (GE Healthcare). […]"}, "HT1080 cells": {"tested_on": "HT1080 cells", "assay": "Co-immunofluorescence/ATAC-see analysis", "type": "cell-based, human", "experimental": "Co-immunofluorescence/ATAC-see analysis. ATAC-see was performed similarly as previously described with slight modifications (Chen et al., Nat. Methods 13:1013-1020, 2016). Enzyme and transposon DNA were mixed at a 1:1.25 enzyme:MEDS-A/B-AF647 molar ratio and incubated at room temperature for 1 hour. Adherent cells were grown on glass coverslips (Fisher Scientific, 12-540A) until 80-90% confluent, washed with 1×PBS, fixed with 1% formaldehyde (Electron Microscopy Services) in 1×PBS for 10 minutes, and washed twice with ice-cold 1×PBS. Suspension cells were washed and resuspended with 1×PBS. 50,000 cells were added to poly-lysine slides and incubated at room temperature for 1 hour in a humidified chamber. An equal volume of 2% formaldehyde was added and incubated for 10 minutes, whereupon slides were washed twice with ice-cold 1×PBS. Immobilized cells were lysed by incubation with LB1 for 3 minutes followed by LB2 for 10 minutes at room temperature. Cells were then subject to tagmentation (20% dimethylformamide, 10 mM MgCl2, 20 mM Tris-HCl pH 7.5, 33% 1×PBS, 0.01% digitonin, 0.1% Tween-20, and either 80 pmol enzyme equivalent of enzyme:DNA complex in a total volume of 100 μL for adherent cells or 10 pmol enzyme equivalent of enzyme:DNA complex in a total volume of 50 μL for suspension cells) for 30 minutes at 37° C. in a humidified chamber. Subsequently, cells were washed with 50 mM EDTA and 0.01% SDS in 1×PBS three times for 15 minute each at 55° C., lysed for 10 minutes with 0.5% Triton X-100 in 1×PBS at room temperature, and blocked with 1% BSA and 10% goat serum in PBS-T for 1 hour in a humidified chamber. Primary antibody was added to slides in 1% BSA/PBS-T and incubated at 4° C. overnight; slides were then washed and subjected to secondary antibody staining for 1 hour. Slides were washed with PBS-T three times for 15 minutes each, stained with DAPI (Sigma, 1 μg/mL) for 1 minute, washed with PBS for 10 minutes, and mounted with Fluorescence Mounting Medium (Dako). Confocal microscopy images were taken with an LSM 880 Axio Imager 2 at 63× magnification (Zeiss). Images were processed with Fiji/ImageJ v2.0.0.\nPrimary antibodies used were anti-RNA polymerase II CTD repeat YSPTSPS (phospho S2) (rabbit, Abcam ab5095, 1:500), anti-H3K27Ac (rabbit, Abcam ab4729, 1:500), anti-H3K9me3 (rabbit, Abcam ab8898, 1:500), anti-CCDCl2 (rabbit, Atlas Antibodies HPA060530, 1:200), anti-SNRPA (mouse, 3F9-1F7, Sigma-Aldrich WH0006626M1, 1:100). […]\nQuantitative image analyses were performed with CellProfiler v3.1.5. […] Pearson correlation coefficients were determined by comparing ATAC-see pixel intensities with corresponding immunofluorescence intensity values within each ROI to assess the nucleus-to-nucleus variation in colocalization. […]"}, "HEK293T nuclei": {"tested_on": "HEK293T nuclei", "assay": "iDAPT protein labeling, western blot of labeled nuclear lysates", "type": "biochemical, human", "details": "extracted HEK293T nuclei", "experimental": "as §1, §2"}}}
{"molecule": "TP5: Tn5 transposase-GSGAGA linker-APEX2 peroxidase fusion, C-terminal FLAG; amino acid SEQ ID NO: 31 (protein, C-terminal FLAG) MITSALHRAADWAKSVFSSAALGDPRRTARLVNVAAQLAKYSGKSITISSEGSKAMQEGAYRFIRNPNVSAEAIRKAGAMQTVKLAQEFPELLAIEDTTSLSYRHQVAEELGKLGSIQDKSRGWWVHSVLLLEATTFRTVGLLHQEWWMRPDDPADADEKESGKWLAAAATSRLRMGSMMSNVIAVCDREADIHAYLQDKLAHNERFVVRSKHPRKDVESGLYLYDHLKNQPELGGYQISIPQKGVVDKRGKRKNRPARKASLSLRSGRITLKQGNITLNAVLAEEINPPKGETPLKWLLLTSEPVESLAQALRVIDIYTHRWRIEEFHKAWKTGAGAERQRMEEPDNLERMVSILSFVAVRLLQLRESFTPPQALRAQGLLKEAEHVESQSAETVLTPDECQLLGYLDKGKRKRKEKAGSLQWAYMAIARLGGFMDSKRTGIASWGALWEGWEALQSKLDGFLAAKDLMAQGIKIGSGAGAGKSYPTVSADYQDAVEKAKKKLRGFIAEKRCAPLMLRLAFHSAGTFDKGTKTGGPFGTIKHPAELAHSANNGLDIAVRLLEPLKAEFPILSYADFYQLAGVVAVEVTGGPKVPFHPGREDKPEPPPEGRLPDPTKGSDHLRDVFGKAMGLTDQDIVALSGGHTIGAAHKERSGFEGPWTSNPLIFDNSYFTELLSGEKEGLLQLPSDKALLSDPVFRPLVDKYAADEDAFFADYAEAHQKLSELGFADADYKDDDDK", "values": [{"measurement": "biotinylation signal (streptavidin)", "setting": "GM12878 nuclei", "value": "highest signals"}, {"measurement": "biotin labeling", "setting": "K562 nuclei", "value": "highest levels of labeling"}]}
{"molecule": "Tn5-F: FLAG-tagged Tn5 transposase purified in-house, negative control probe; amino acid SEQ ID NO: 19 (protein, FLAG tag) MITSALHRAADWAKSVFSSAALGDPRRTARLVNVAAQLAKYSGKSITISSEGSKAMQEGAYRFIRNPNVSAEAIRKAGAMQTVKLAQEFPELLAIEDTTSLSYRHQVAEELGKLGSIQDKSRGWWVHSVLLLEATTFRTVGLLHQEWWMRPDDPADADEKESGKWLAAAATSRLRMGSMMSNVIAVCDREADIHAYLQDKLAHNERFVVRSKHPRKDVESGLYLYDHLKNQPELGGYQISIPQKGVVDKRGKRKNRPARKASLSLRSGRITLKQGNITLNAVLAEEINPPKGETPLKWLLLTSEPVESLAQALRVIDIYTHRWRIEEFHKAWKTGAGAERQRMEEPDNLERMVSILSFVAVRLLQLRESFTPPQALRAQGLLKEAEHVESQSAETVLTPDECQLLGYLDKGKRKRKEKAGSLQWAYMAIARLGGFMDSKRTGIASWGALWEGWEALQSKLDGFLAAKDLMAQGIKIDYKDDDDK", "values": [{"measurement": "ATAC-see correlation with H3K9me3 immunofluorescence", "setting": "HT1080 cells; marker of transcriptionally inactive chromatin", "value": "similarly poor correlations"}, {"measurement": "ATAC-see correlation with H3K27Ac and RNAPII S2P immunofluorescence signal", "setting": "HT1080 cells; markers of transcriptionally active chromatin", "value": "similarly positive correlations"}, {"measurement": "peroxidase-dependent biotin signal", "setting": "HEK293T nuclei", "value": "low signal"}]}
